Data reported in a protein production outcome set (Wang et al. 2014).

Assay: label from the status in PepcDB records

## MAVEEVIEMQGLSLDPTSHRVMAGEEPLEMGPTEFKLLHFFMTHPERVYSREQLLNHVWGTNVYVEDRTVDVHIRRLRKALEPGGHDRMVQTVRGTGYRFSTRF
  protein production: not failed

## LPPKKFGNPGERLRKKKWDLSELPKFEKNFYVEHPEVARLTPYEVDELRRKKEITVRGGDVCPKPVFAFHHANFPQYVMDVLMDQHFTEPTPIQCQGFPLALSGRDMVGIAQTGSGKTLAYLLPAIVHINHQPYLERGDGPICLVLAPTRELAQQVQQVADDYGKCSRLKSTCIYGGAPKGPQIRDLERGVEICIATPGRLIDFLESGKTNLRRCTYLVLDEADRMLDMGFEPQIRKIVDQIRPDRQTLMWSATWPKEVRQLAEDFLRDYTQINVGNLELSANHNILQIVDVCMESEKDHKLIQLMEEIMAEKENKTIIFVETK
  protein production: failed

## NNINVITDQMGNLDIKSNDNINQNTQNSNVASDLNLLTQNKYLENILMMNTYGVNYDHLFLPQNVAYLAAQQLSNNIMNNRNQINAAYTSQQYPNQSIPIKNIYDQSHLKYQQNSSSWRPPLNNGNIYDGVKSNPMGLHILQNGIDLYTNVDSNSVTSAINFDKYDSIPVSVTGPDYSATNVIENFDELKLDPTIRNNILLASYQRPTPIQKNAIPAILEHRDIMACAQTGSGKTAAFLIPIINHLVCQDLNQQRYSKTAYPKCLILAPTRELAIQILSESQKFSLNTPLRSCVVYGGADTHSQIREVQMGCHLLVATPGRLVDFIEKNKISLEFCKYIVLDEADRMLDMGFEPQIRKIIEESNMPSGINRQTLMFSATFPKEIQKLAADFLYNYIFMTVGRVGSTSDSIKQEIIYMTDVEKLNYLKNIFNTTAPNTLILIFVETKKGADSLARFLLSKGYPVSSIHGDRSQVEREAALSMFRNGQCPILVATAVAARGLDIPNVKHVINYDLPSDIEEYVHRIGRTGRLGNHGRATSFYVDKNNNIAIDLVDLLKEANQIVPQWLSALADELKRNSTMGSNNKRHNQRRYKNGNFGGRDYRQGPSNVNMNSGVNPDYFISGSVAPRHAKLNNGNYFPRSNELHDQHQKQNNNNNQVISNTFHTGISASHLIPGYATFNRQQAPLHFIPHQTNNTQFLSSSGQMALYNRMQNSGHMAPNQRFPNEPIHHQQEQLPITYNFSKNLPYLGQSYSGHNNNNNNNNNTSKINDSDSCYFGNKTPR
  protein production: not failed

## MSPIALNLLQSTPYQVGGSLAANHPSYSQREADRELLAQLRAGKFCYVFNCRQMGKSSLRVRAMHQLQQDGVVCVSIDITSLGTEADPQKWYNGIITQLYLGLPLAGKVALKPWLREREQLSPIQKLREFVETIILQTIGDRQIVIFIDEIDKVLSLPFSLDDFFSYIRFCYNQRADDHEYNRLSFALFGVATPSDLIDNKTQTPFNIGQAIALTGFTLTEALPLSAGLPVDEVSAREILGEILAWTGGQPFLTQKVCELVAEALQKGDLDCQSQTIATTIAQLIEEKIIRHWESNDEPVHFRTIGDRLLKDQARSGQLLGLYQEILHKGAIPADDSVEQTVLRLTGLVVKVKGQLRPYNPIYQAIFNAQWVSKELNKLRPYGTNLQAWINSNYQDSSRLLRGEALREALAWASSKNLSGVDYRYLNASQNQEQEASLAANQILTQANVKAKRMISFGIVVLMMSLGGSAIALSQAYFATLKQQRSQQGTELQRLGTSAQRQFTFDQIPGLVTALEAGNQLHHLVKADETLSQYPATSPLVSLQQILSQIAEKNVLTGHRDGVTSVAISSHKNLIASASRDGTVHLWTPQGEFLREFTGHTGSIYRVDFSPNGKIFATAGQDQTVKIWDLDGNLLQTLKGHQDSVYSVSFSPDGEILASTSRDRTVRLWHWRSGKTLAVLGGHTKSVDDAQFSPDGQTLVSVCRDGQIRLWDLDGNLIRQFGLPEVAFFGVNWHPNGNLLAVAADDGTVRLWTPQGEIKATLSGHDEFVTRVVFTPDGKQLFSSSSNGSVIHWSTSGKMLKKYQGYPEAIFGLALASNGALLAIGAENNLVKVWDMSPKSDLVNLNLPAVLGAVAENAKTNTIALAMENEPLILFNTKNRSRQFLSDASQNLDRLKFSADGQWLLGQRGRQWQLWQLQTKSQLLKTWRTDISRVYDVDLRTTPTSPQWAIAMATGSGEVQLWQGTKNNQTSGNQSQGVPIELNDPIVLALGNSIQRKEPIRSVSLHPTLPQLAAGDEQGNLTLWNFDGTLIRSIVAHGDRLNQLQYSPNGKYLLSAGREGTAKIWSVEGQLLHTLKSDPLPIDQIAISPDSQWIATAASDGMVRLWDQQGNLRGEFTSTSGSLLGLDFNRQGQWLLAVAQNGDLQSWPVTPEKERLRQLVEQGCDWLRDYLATEKQPAQTYSLEFCQPTGN
  protein production: failed

## MGKENSKVVVLDFWASPYAMRTKVALREKGVEFEVQEEDLWNKSELLLKSNPVHKKVPVLIHNNTPISESLIQVQYIDETWTDAASFLPSDPQSRATARFWADYADKTISFEGGRKIWGNKKGEEQEKGKKEFLESLKVLEAELGDKSYFGGETFGYVDITLVPFYSWFYALEKCGDFSVEAECPKIVAWGKRCVERNSVAATLPESEKVYQQVLKLRQIFGVE
  protein production: failed

## MHRTTRIKITELNPHLMCVLCGGYFIDATTIIECLHSFCKTCIVRYLETSKYCPICDVQVHKTRPLLNIRSDKTLQDIVYKLVPGLFKNEMKRRRDFYAAHPSADAANGSNEDRGEVADEDKRIITDDEIISLSIEFFDQNRLDRKVNKDKEKSKEEVNDKRYLRCPAAMTVMHLRKFLRSKMDIPNTFQIDVMYEEEPLKDYYTLMDIAYIYTWRRNGPLPLKYRVRPTCKRMKISHQRDGLTNAGELESDSGSDKANSPAGGVPSTSSCLPSPSTPVQSPHPQFPHISSTMNGTSNSPSGNHQSSFANRPRKSSVNGSSATSSG
  protein production: failed

## MDYTASYYTDEELAKLFKAAKGDPLELPIVLAAYYGLRRSEIIGLRWDAIDFNPDDPKITIQFTVTEVNFGDGQGNVIIEKEGTKSKASKRTLPLVKPIADLLLQKKKDIENNRRLCGSCYNDKYLDFVHVNEIGERMKPNYISQHFALLLEKHGLKKIRFHDLRHSCASLLYANGVSLKQIQEWLGHSDISTTANIYTHLDYNSKIATANAILPVLFDQLEHHHHHH
  protein production: failed

## MSTKSKIFLVLLVFCPLSFAAHWLGWGETTVFILAGLAIVPLAAFMGTATEEIAVVIGPNAGGLLNATFGNATELILAYIALKEGLIEVVKATLTGSIIGNLLLVMGFAVFLGGLRYKEQNFQPLAARLNASTMNLGVVAILLPTALQYTSTGVEETVLQNLSVAVAVVLIGVYLLSLVFSMGTHAYLYDVGVAENMEMPELGEDVSEPEPPTEEEKPNLWLWTGVLLVVTLGVAVESELLVGSLEVATESLGLTALFTGVIVLPIIGNAAEHATAVTVAMKDKMDLSMSVVMGSSLQIAFFVAPVLVIVGWAIGQPMDLNFNPFELVAVLVAVLIVNSISSDGTSNWLEGILLLATYAIVALAFFFHPTLV
  protein production: failed

## PGVELRTAADFADDPRPLFELDAETSGDEPGDVDHEFTDYEAWLEETWRHPLLSHELTSVALVDGRPAAFSAARTDGATRYHTGMTGTARAFRGRGLAKLAKNDSLHRARAAGFTEAFTGNDAGNEPMLAINKWFGYEICATEVRYVRELG
  protein production: failed

## MSQPEPRAGENRALRAFAPDAGLFLLKPWIGGLALLADWGLIAAAFACAALWPHPVIYLLAALLIARSQLALAVLMHESAHGLLLRGQKANDRLGQWLAAGPLFLSLCTYRAGHLKHHLHPMEHDDPVVAVFGLGDYPLPRGKLALRLLADLCGVGYFISALRFARGDYRAIMPRVDKSPRQALAQVLSMLVSNGLLFGLLAWSGHPWLYLGLWLLPAITLLPLLGRVRAIMEHAGLPVAADQSRNARSIVRPSVQTFLFGPHAIHYHIEHHLYVRVPFYHLGGLHRQLATAQLLPEGNLYQGYGGVLRDVSDPDWRSSAR
  protein production: failed

## MAESGVSVGSESLQLYEAQFFGFTPETCTLRVRDAFRDSLNHILVAVESVFVKRLCPGRDPPAELRLTARESTQKLRQFLQERFEIMFQRMKGMLIDRMLSIPQNVLLPEDQMHQKYPEGKEELTKLQESIAKLLQAYEAEVCSKQALLAELEEQKETQKQLDEVLRWIEELRVSWRREGMGNVQDSVRHMIETVGQLQDVVGKINKQNSALDEV
  protein production: failed

## MKDGEAATGQAASRPKRADARRNEKNLLDAAAAVFVRSGVEAPVRDIAAEAGVGTATIYRHFPTRADLIIGVYRHQVEACAEAGPALLASSPTPYAALAGWIDLFVDFLVTKHGLAAVLQSDSAGFETLHAYFLDRLVPVCTDLLAAATDSGEIDTDVPPLALMRGVGNLCIGAETPNPSYDARQLVRILIAGLRAAD
  protein production: not failed
